The record followed here is publication PMC6005420, “A low-complexity region in the YTH domain protein Mmi1 enhances RNA binding”.

The term Kd denotes the equilibrium constant for the complex coming apart.

Series [1] concerns the target T1, Mmi1 USR-YTH (Schizosaccharomyces pombe, UniProt O74958 282-488).
T1 sequence: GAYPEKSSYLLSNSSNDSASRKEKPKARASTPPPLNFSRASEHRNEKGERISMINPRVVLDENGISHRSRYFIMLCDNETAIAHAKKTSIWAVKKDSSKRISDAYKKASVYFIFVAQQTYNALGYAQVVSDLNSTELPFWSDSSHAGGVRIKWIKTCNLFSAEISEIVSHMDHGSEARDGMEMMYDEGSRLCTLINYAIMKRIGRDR
The series is described as follows: SwitchSENSE. The note with it: 40 mM NaCl; RNA-DNA chimera: 15-mer DSRshort followed by 42 deoxyribonucleotides; FP: 10 mM TAPS pH 8.2, 2 mM PIPES, 50 or 150 mM NaCl, 0.5 mM MgAc, 0.1 mM TCEP, 0.01% Brij-35, room temperature, 0.1 nM RNA; EMSA: 20 mM HEPES pH 7.5, 100 mM …. In general terms: A gel shift assay detects complexes by their altered migration in electrophoresis.

In series [2] the test system is Mmi1 YTH-ΔN (Schizosaccharomyces pombe). The series is described as follows: SwitchSENSE. As to conditions: 40 mM NaCl; RNA-DNA chimera: 15-mer DSRshort followed by 42 deoxyribonucleotides; FP: 10 mM TAPS pH 8.2, 2 mM PIPES, 50 or 150 mM NaCl, 0.5 mM MgAc, 0.1 mM TCEP, 0.01% Brij-35, room temperature, 0.1 nM RNA; EMSA: 20 mM HEPES pH 7.5, 100 mM ….
Series [3] deals with Mmi1 YTH-ΔNΔC (Schizosaccharomyces pombe). The series is described as follows: SwitchSENSE. The note with it: 40 mM NaCl; RNA-DNA chimera: 15-mer DSRshort followed by 42 deoxyribonucleotides; FP: 10 mM TAPS pH 8.2, 2 mM PIPES, 50 or 150 mM NaCl, 0.5 mM MgAc, 0.1 mM TCEP, 0.01% Brij-35, room temperature, 0.1 nM RNA; EMSA: 20 mM HEPES pH 7.5, 100 mM ….
The subject of series [4] is Mmi1 YTH-ΔC (Schizosaccharomyces pombe). The series is described as follows: SwitchSENSE. As to conditions: 40 mM NaCl; RNA-DNA chimera: 15-mer DSRshort followed by 42 deoxyribonucleotides; FP: 10 mM TAPS pH 8.2, 2 mM PIPES, 50 or 150 mM NaCl, 0.5 mM MgAc, 0.1 mM TCEP, 0.01% Brij-35, room temperature, 0.1 nM RNA; EMSA: 20 mM HEPES pH 7.5, 100 mM ….
The target of series [5] is T2, Mmi1 YTH (Schizosaccharomyces pombe, UniProt O74958 327-488).
T2 sequence: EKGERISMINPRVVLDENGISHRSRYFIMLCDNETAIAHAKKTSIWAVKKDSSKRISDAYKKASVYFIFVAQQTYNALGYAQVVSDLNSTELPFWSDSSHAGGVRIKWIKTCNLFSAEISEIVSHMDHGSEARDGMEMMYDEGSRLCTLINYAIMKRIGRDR
The series is described as follows: SwitchSENSE. As to conditions: 40 mM NaCl; RNA-DNA chimera: 15-mer DSRshort followed by 42 deoxyribonucleotides; FP: 10 mM TAPS pH 8.2, 2 mM PIPES, 50 or 150 mM NaCl, 0.5 mM MgAc, 0.1 mM TCEP, 0.01% Brij-35, room temperature, 0.1 nM RNA; EMSA: 20 mM HEPES pH 7.5, 100 mM ….

In series [6] the target is T1, Mmi1 USR-YTH. Description: EMSA; FP: 10 mM TAPS pH 8.2, 2 mM PIPES, 50 or 150 mM NaCl, 0.5 mM MgAc, 0.1 mM TCEP, 0.01% Brij-35, room temperature, 0.1 nM RNA; EMSA: 20 mM HEPES pH 7.5, 100 mM NaCl (plus 30 mM from protein buffer), 1 mM MgAc, 0.1 mM TCEP, 5% glycerol, 50 nM RNA, 15 min; SwitchSENSE: 40 mM NaCl. As to conditions: protein: recombinant; tags: N-terminal His6, 3C-cleaved; label: 3'-fluorescein.

Another series addresses T3, Mmi1(301-488) (Schizosaccharomyces pombe, UniProt O74958 301-488).
T3 sequence: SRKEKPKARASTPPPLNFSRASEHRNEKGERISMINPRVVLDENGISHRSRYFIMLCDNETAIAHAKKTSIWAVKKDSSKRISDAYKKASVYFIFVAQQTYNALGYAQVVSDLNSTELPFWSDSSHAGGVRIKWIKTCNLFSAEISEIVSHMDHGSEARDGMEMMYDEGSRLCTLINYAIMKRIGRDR
Description: X-ray crystallography; FP: 10 mM TAPS pH 8.2, 2 mM PIPES, 50 or 150 mM NaCl, 0.5 mM MgAc, 0.1 mM TCEP, 0.01% Brij-35, room temperature, 0.1 nM RNA; EMSA: 20 mM HEPES pH 7.5, 100 mM NaCl (plus 30 mM from protein buffer), 1 mM MgAc, 0.1 mM TCEP, 5% glycerol, 50 nM RNA, 15 min; SwitchSENSE: 40 mM NaCl. As to conditions: protein: recombinant; tags: N-terminal His6, 3C-cleaved.

For series [7], the target named is T1, Mmi1 USR-YTH. The series is described as follows: fluorescence polarization; 50 mM NaCl; FP: 10 mM TAPS pH 8.2, 2 mM PIPES, 50 or 150 mM NaCl, 0.5 mM MgAc, 0.1 mM TCEP, 0.01% Brij-35, room temperature, 0.1 nM RNA; EMSA: 20 mM HEPES pH 7.5, 100 mM NaCl (plus 30 mM from protein buffer), 1 mM MgAc, 0.1 mM TCEP, 5% glycerol, 50 nM RNA, 15 min; SwitchSENSE: 40 mM NaCl. The note with it: protein: recombinant; tags: N-terminal His6, 3C-cleaved; label: 3'-6-carboxyfluorescein. For orientation: Fluorescence polarisation rises when a labelled molecule tumbles more slowly, as on binding a larger partner.

Series [8] has as its target T2, Mmi1 YTH. Described as above. As to conditions: protein: recombinant; tags: N-terminal His6, 3C-cleaved; label: 3'-6-carboxyfluorescein.
Series [9] has as its target T1, Mmi1 USR-YTH. The series is described as follows: fluorescence polarization; 150 mM NaCl; FP: 10 mM TAPS pH 8.2, 2 mM PIPES, 50 or 150 mM NaCl, 0.5 mM MgAc, 0.1 mM TCEP, 0.01% Brij-35, room temperature, 0.1 nM RNA; EMSA: 20 mM HEPES pH 7.5, 100 mM NaCl (plus 30 mM from protein buffer), 1 mM MgAc, 0.1 mM TCEP, 5% glycerol, 50 nM RNA, 15 min; SwitchSENSE: 40 mM NaCl. As to conditions: protein: recombinant; tags: N-terminal His6, 3C-cleaved; label: 3'-6-carboxyfluorescein.

Series [10] concerns the target T2, Mmi1 YTH. The series is described as above. The note with it: protein: recombinant; tags: N-terminal His6, 3C-cleaved; label: 3'-6-carboxyfluorescein.
The target in series [11] is T1, Mmi1 USR-YTH. The series is described as follows: NMR; FP: 10 mM TAPS pH 8.2, 2 mM PIPES, 50 or 150 mM NaCl, 0.5 mM MgAc, 0.1 mM TCEP, 0.01% Brij-35, room temperature, 0.1 nM RNA; EMSA: 20 mM HEPES pH 7.5, 100 mM NaCl (plus 30 mM from protein buffer), 1 mM MgAc, 0.1 mM TCEP, 5% glycerol, 50 nM RNA, 15 min; SwitchSENSE: 40 mM NaCl. As to conditions: protein: recombinant; tags: N-terminal His6, 3C-cleaved.

Consider DSRshort-DNA chimera for SwitchSENSE, for which the Kd with Mmi1 USR-YTH [1] amounted to 0.09 nM; in series [2], 15000 nM; in [3] it was 51000 nM; in [4] it was 160 nM; with Mmi1 YTH [5] it was 16 nM.
As for GUGUCUCUUUAAACCUAAAAAGCAC (ssRNA) [rec8DSR], the binding result with Mmi1 USR-YTH [6] is “binds”.
Take CUUUAAACCUA (ssRNA) [11-mer DSR RNA]: in the series with Mmi1(301-488), the binding result is “binds”.
Regarding UCUUAAACCAGUCAC (ssRNA) [DSRshort (15-mer)], the Kd with Mmi1 USR-YTH [7] is 0.14 ± 0.01 nM; with Mmi1 YTH [8] it was 42 ± 18 nM; with Mmi1 USR-YTH [9], 6.1 ± 0.7 nM; with Mmi1 YTH [10], 154 ± 85 nM.
Consider UUAAACC (ssRNA) [7-mer DSR RNA], for which the binding result with Mmi1 USR-YTH [11] and in the series with Mmi1(301-488) was “binds” each time.
